Tests used:
[1] = test system: T1, E2-12-ABE8e (Neisseria meningitidis); experiment: cell_activity; details: PAM N4YNC average, E. coli ABE-PPA; 33% on N4YND
T1 sequence: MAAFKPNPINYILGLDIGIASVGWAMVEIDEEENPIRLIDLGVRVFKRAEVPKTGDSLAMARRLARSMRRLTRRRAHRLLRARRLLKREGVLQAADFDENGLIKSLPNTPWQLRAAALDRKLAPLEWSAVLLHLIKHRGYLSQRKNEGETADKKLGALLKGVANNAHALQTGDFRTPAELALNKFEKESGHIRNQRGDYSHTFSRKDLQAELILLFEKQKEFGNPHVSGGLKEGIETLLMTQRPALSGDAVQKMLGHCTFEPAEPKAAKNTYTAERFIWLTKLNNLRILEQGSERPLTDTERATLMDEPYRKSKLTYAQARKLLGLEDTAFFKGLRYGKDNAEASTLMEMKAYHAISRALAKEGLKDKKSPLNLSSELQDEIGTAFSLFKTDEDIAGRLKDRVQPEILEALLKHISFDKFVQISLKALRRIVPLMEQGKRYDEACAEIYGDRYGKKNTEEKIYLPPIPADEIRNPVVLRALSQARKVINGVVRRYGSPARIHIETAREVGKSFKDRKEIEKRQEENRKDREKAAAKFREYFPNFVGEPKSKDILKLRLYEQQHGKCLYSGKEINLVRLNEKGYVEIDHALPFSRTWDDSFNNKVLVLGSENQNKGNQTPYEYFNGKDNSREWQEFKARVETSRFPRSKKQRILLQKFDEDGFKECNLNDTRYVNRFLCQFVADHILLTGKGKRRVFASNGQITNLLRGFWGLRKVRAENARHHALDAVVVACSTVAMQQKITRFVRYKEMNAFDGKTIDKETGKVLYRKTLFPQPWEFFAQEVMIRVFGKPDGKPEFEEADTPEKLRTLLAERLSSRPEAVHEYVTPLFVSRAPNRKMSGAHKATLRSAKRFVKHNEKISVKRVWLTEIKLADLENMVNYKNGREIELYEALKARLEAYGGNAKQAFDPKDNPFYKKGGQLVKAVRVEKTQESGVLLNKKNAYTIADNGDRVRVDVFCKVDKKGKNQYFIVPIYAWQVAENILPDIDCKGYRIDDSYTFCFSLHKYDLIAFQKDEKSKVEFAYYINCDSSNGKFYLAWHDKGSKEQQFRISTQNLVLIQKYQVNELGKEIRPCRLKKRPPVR

[2] = test system: T2, E3-18-ABE8e (Neisseria meningitidis); experiment: cell_activity; details: PAM N4YNC average, E. coli ABE-PPA; 33% on N4YND
T2 sequence: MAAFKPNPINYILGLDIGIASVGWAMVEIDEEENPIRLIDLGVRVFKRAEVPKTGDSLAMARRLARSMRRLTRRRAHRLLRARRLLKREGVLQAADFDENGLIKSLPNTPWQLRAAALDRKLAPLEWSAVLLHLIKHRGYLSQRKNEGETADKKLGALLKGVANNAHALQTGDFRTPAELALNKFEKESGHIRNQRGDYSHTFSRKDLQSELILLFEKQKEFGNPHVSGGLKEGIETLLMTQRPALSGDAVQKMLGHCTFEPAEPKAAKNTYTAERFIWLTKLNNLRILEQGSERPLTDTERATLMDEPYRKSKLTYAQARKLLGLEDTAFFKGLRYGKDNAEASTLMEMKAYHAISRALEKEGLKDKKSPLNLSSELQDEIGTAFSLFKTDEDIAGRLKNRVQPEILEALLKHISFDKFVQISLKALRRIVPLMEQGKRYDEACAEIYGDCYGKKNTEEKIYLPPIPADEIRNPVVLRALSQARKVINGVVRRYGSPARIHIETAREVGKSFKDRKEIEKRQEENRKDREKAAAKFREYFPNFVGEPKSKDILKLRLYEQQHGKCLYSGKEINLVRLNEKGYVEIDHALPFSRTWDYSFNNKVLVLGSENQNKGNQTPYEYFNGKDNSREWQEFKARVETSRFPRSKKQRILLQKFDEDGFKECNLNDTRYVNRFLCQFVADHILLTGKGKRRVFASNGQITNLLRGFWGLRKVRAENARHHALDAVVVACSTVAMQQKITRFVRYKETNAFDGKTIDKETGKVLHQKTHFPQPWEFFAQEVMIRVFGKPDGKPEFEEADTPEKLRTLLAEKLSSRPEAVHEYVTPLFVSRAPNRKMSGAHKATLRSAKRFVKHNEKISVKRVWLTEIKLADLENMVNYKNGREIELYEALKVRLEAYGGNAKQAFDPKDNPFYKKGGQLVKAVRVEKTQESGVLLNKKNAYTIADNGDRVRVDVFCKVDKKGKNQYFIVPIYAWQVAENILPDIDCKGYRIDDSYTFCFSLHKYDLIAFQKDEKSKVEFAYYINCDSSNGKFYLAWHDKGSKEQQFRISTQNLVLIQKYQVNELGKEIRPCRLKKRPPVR

AUGGCCCAGACUGAGCACGUGAGGUUGUAGCUCCCUUUCUCAUUUCGGAAACGAAAUGAGAACCGUUGCUACAAUAAGGCCGUCUGAAAAGAUGUGCCGCAACGCUCUGCCCCUUAAAGCUUCUGCUUUAAGGGGCAUCGUUUA / ATGGCCCAGACTGAGCACGTGA / TCACGTGCTCAGTCTGGGCCAT [ABE-PPA sgRNA ; ABE-PPA protospacer library target]
activity (% A-to-G conversion) [1]: 58 | activity (% A-to-G conversion) [2]: 61

Reference: patent publication US20250027114
